This data set concerns the molecule itself. Put plainly: analytical size exclusion chromatography and analytical ultracentrifugation (sedimentation equilibrium); self-association (dimer) not seen.

Consider one protein from patent US20130331550A1 (TECHNISCHE UNIVERSITAET MUENCHEN, published 2013).

Experimental: Bovine serum albumin (66 kDa, Vᵣ=9.861 ml), carbonic anhydrase (29 kDa, Vᵣ=12.35 ml), myoglobin (17.05 kDa, Vᵣ=13.244 ml), cytochrome C (12.4 kDa, Vᵣ=14.11 ml), and aprotinin (6.5 kDa, Vᵣ=16.35 ml) were used as protein size standards for calibration of the column while the void volume was determined with blue dextran (V₀=8.08 ml).
Sedimentation equilibrium experiments were performed using an XL-I analytical ultracentrifuge and a Ti-60 rotor equipped with a UV/Vis as well as interference detector (Beckman, Fullerton, Calif.). An 0.8 mg/ml solution of the purified recombinant Blc in 150 mM NaCl, 1 mM EDTA, 100 M Tris/HCl pH 8.0 was applied to six-sector 12 mm path length cells. The samples were centrifuged at 25000 rpm for 72 h at 4° C., until equilibrium was reached, whereby the protein gradient was measured by UV absorption at 280 nm.

B1: recombinant Blc (Escherichia coli bacterial lipocalin, Cys1Ala/Cys113Ser, C-terminal Strep-tag II, as encoded on pBlc2) (other)
chain: ASSPTPPRGVTVVNNFDAKRYLGTWYEIARFDHRFERGLEKVTATYSLRDDGGLNVINKGYNPDRGMWQQSEGKAYFTGAPTRAALKVSFFGPFYGGYNVIALDREYRHALVSGPDRDYLWILSRTPTISDEVKQEMLAVATREGFDVSKFIWVQQPGSAWSHPQFEK
notes: The construct has 168 residues (159 + 9 tag residues)
Consider B1, for which the binding result is given as “no binding (tested: about 40 µM)”.
